Patent US20130157959

How the values were obtained:
[1] = biological target: in vitro translated 35S-labelled mutant p53 K24R, P04637
[2] = biological target: in vitro translated 35S-labelled p53 (wild-type), P04637
[3] = biological target: mutant p53 6CKR, P04637

B1: GST-Hades Ring protein (RP) (protein)
chain: RLKQMQEEFQEHEAQLLSRAKPEDRESLKSACVVCLSSFKSCVFLECGHVCSCTECYRALPEPKKCPICRQAITRVIPLYN
With B1 the “in vitro ubiquitination of 35S-labelled p53 K24R, SDS-PAGE and autoradiography” value [1] was “the in vitro translated p53 K24R was not ubiquitinated by Hades”, the “in vitro ubiquitination of 35S-labeled p53 with E1 and several E2 enzymes, autoradiography” value [2] was “The 35S-labeled p53 was polyubiquitinated in an Ubc5a or Ubc5c-dependent manner” and the “in vitro ubiquitination of 35S-labelled p53, SDS-PAGE and autoradiography” value [2] was “WT p53 was ubiquitinated by Hades”. The “in vitro ubiquitination of p53 with E1, E2 (UbcH5c) and His-ubiquitin, anti-p53 immunoblot” value [2] was “The p53 ubiquitination was only induce by Hades” and the “in vitro ubiquitination of p53 lysine mutants, immunoblot” value [3] was “Hades was still able to ubiquitinate a form of p53 in which all six lysines was mutated (6CKR)”.
